Data on two proteins can be found in paper PMC5177888, “An Adaptation To Life In Acid Through A Novel Mevalonate Pathway” (Scientific Reports, 2016).

Data set [1] deals with the molecule itself. Briefly: SEC; recombinant Ta0893 (co-expressed with GroEL/ES) mixed with Biorad gel filtration standard, Superdex S200 10/300 GL, 50 mM sodium phosphate pH 6.5, 500 mM NaCl; fractions assayed for MBD activity; apparent molecular weight from the activity profile.
Data set [2] deals with the molecule itself. Briefly: SEC; T. acidophilum cell-free lysate mixed with Biorad gel filtration standard, Superdex S200 10/300 GL, 50 mM sodium phosphate pH 6.5, 500 mM NaCl; fractions assayed for MBD activity; apparent molecular weight from the activity profile.

B1: mevalonate 3,5-bisphosphate decarboxylase (Ta0893) from Thermoplasma acidophilum, recombinant, full length, co-expressed with GroEL/GroES (enzyme, UniProt Q9HJS1 1-405, looked up)
chain: MDTAGMEHSVSWISSNSDELILRSWISSRMDIAELHRAGDDIKEMMKSEGYYSEPSKYEAELSDGNITFAYSYPIKAFEKFLGYYDRENRIAFNPSISMRTDFSFCLAACRYRKNGKTDTVVLDGYADNKYYKKAKFALDKFRSEYSINGSFDFYIKRYRRYQKAKGLSESSAVAAAVSRALISNVFGDDAAKDDIFVSRYARLVSGSGTRAAHDGISMWLSYPGMDSRDCVAFKVGKSNENLNYGVFPKYSDVATDNAHSIAVNSVFYGTWVSEKFSNVKRLISDHFDINDLLKIGENDMLRLNSILMSGGLIIQTPDSLRILKEILKFKSKNEGFYFTADTGPSIAIFSFDRSLIDEFRENVNDEYIEGSYDFKGYNNRMRDFIREAQEYFTQTPGEDEEDRL
notes: Ta0893, mevalonate 3,5-bisphosphate decarboxylase, Thermoplasma acidophilum; NCBI WP_010901303.1; full-length protein; predicted monomer 46.3 kDa; gene codon optimized and synthesized, cloned in pET28a(+) between NdeI and XhoI; The Ni-NTA eluate may still hold E. coli proteins such as the co-expressed chaperones; also called MBD; recombinant Ta0893; source: E. coli BL21(DE3) Gold, co-expressed …
B1: the “stoichiometry N” value in data set [1] worked out at 2.

B2: mevalonate 3,5-bisphosphate decarboxylase (Ta0893), native, in Thermoplasma acidophilum lysate (enzyme, UniProt Q9HJS1 1-405, looked up)
chain: MDTAGMEHSVSWISSNSDELILRSWISSRMDIAELHRAGDDIKEMMKSEGYYSEPSKYEAELSDGNITFAYSYPIKAFEKFLGYYDRENRIAFNPSISMRTDFSFCLAACRYRKNGKTDTVVLDGYADNKYYKKAKFALDKFRSEYSINGSFDFYIKRYRRYQKAKGLSESSAVAAAVSRALISNVFGDDAAKDDIFVSRYARLVSGSGTRAAHDGISMWLSYPGMDSRDCVAFKVGKSNENLNYGVFPKYSDVATDNAHSIAVNSVFYGTWVSEKFSNVKRLISDHFDINDLLKIGENDMLRLNSILMSGGLIIQTPDSLRILKEILKFKSKNEGFYFTADTGPSIAIFSFDRSLIDEFRENVNDEYIEGSYDFKGYNNRMRDFIREAQEYFTQTPGEDEEDRL
notes: Ta0893, mevalonate 3,5-bisphosphate decarboxylase, Thermoplasma acidophilum; NCBI WP_010901303.1; predicted monomer 46.3 kDa; followed as MBD activity in the lysate; also called MBD; native MBD; source: endogenous, T. acidophilum cell-free lysate
Turning to B2, the “stoichiometry N” value in data set [2] was found to be 2.
